In PMC4627693:

Tested on: Cys-Srctide (Biotin-ZZICGEFRRR)
Test: cross-linking

Substance: c-Src tyrosine kinase (recombinant)
- percent conversion to crosslinked product: 40% conversion in 25 minutes
